Experimental data taken from patent US20240076389A1.

B1: hFc-sdAb005-DM1 (Fc fusion, not shown: a dimerising Fc or GST)
chain: QVKLEESGGGLAQAGGSLRLSCAASGSISSINTIGWFRQAPGKQRELVAASDSGANRNYADSVKGRFTISRDNAKNTVYLQMNNLKPEDTAIYYCRAWGTGTISTMYWGQGTQVTVSS
modifications: DM1 conjugate (SMCC linker); sites not given
B2: hFC-F107-10G1 (antibody, human IgG1, kappa, V domains shown)
VH: EVNLVESGGGVVKPGASLKLSCEASGFTFSNYGMSWVRQTSDKRLEWVASISGGGGRTYYLDNVKGRFIISRENAKNTLYLQMSSLKSEDTALFYCARGARASYFAMDYWGQGSSVTVSS
VL: VIVMTQSHKFMSTSVGDRVSITCKASQDVTTAVAWYQQKPGQSPKLLIYWASTRHTGVPDRFTGSGSGTDYSLTISNVQTEDLAFYYCQQHFTTPLTFGAGTKLELKR
B3: hFc-sdAb001-DM1 (Fc fusion, not shown: a dimerising Fc or GST)
chain: QVKLEESGGGLVQAGGSLRLSCTASASISSFDIMGWYRQAPGKQRELVAAITTLDIANYRDSVKGRFTISRDNAKNTVYLQMDSLKPEDTARYHCAAFQSDQNYWGQGTQVTVSS
modifications: DM1 conjugate (SMCC linker); sites not given
B4: NRC-sdAb001-Fc (VHH-human IgG1 Fc fusion) (Fc fusion, not shown: a dimerising Fc or GST)
chain: QVKLEESGGGLVQAGGSLRLSCTASASISSFDIMGWYRQAPGKQRELVAAITTLDIANYRDSVKGRFTISRDNAKNTVYLQMDSLKPEDTARYHCAAFQSDQNYWGQGTQVTVSS
B5: NRC-sdAb002-Fc (VHH-human IgG1 Fc fusion) (Fc fusion, not shown: a dimerising Fc or GST)
chain: QVQLVDSGGGLVQAGGSLRLSCATSTRTVSSAVMAWFRQAPEKVRDFVGFITNSGNILYDDSVKGRFTISRDNAQNTVYLQMNSLKPEDTAVYYCAAKWSFSSGYGDLRRAAMYDYWGQGTQVTVSS
B6: hFc-sdAb006-DM1 (Fc fusion, not shown: a dimerising Fc or GST)
chain: QVKLEESGGGLVQAGASLRLSCVASESIFGFNTMGWYRQAPGNERELVASISNSKRTMYADSVKGRFTISRDNAKNTVNLQMNNLKPEDTAVYYCRAWGIITSATVYWGQGTQVTVSS
modifications: DM1 conjugate (SMCC linker); sites not given
B7: NRC-sdAb003-Fc (VHH-human IgG1 Fc fusion) (Fc fusion, not shown: a dimerising Fc or GST)
chain: QVQLVESGGGLVQAGGSLRLSCAASGVTLDYTAIGWFRQAPGKERELVAAITSGGNTDYAESAKGRFRISRDNSKNTIYLQMNSLKPEDTGVYYCAARRGGARGEYDYWDQGTQVTVSS
B8: hFc-sdAb008-DM1 (Fc fusion, not shown: a dimerising Fc or GST)
chain: QVKLEESGGGLVQAGGSLRLSCAASGSSGMINTMGWYRQAPGKQRELVARRSTGGTTNYADSVKGRFTISRDDANNTVYLQMNSLKPEDTAVYYCAIIWRTSDLTGRFNTWGQGTQVTVSS
modifications: DM1 conjugate (SMCC linker); sites not given

Tests used:
[1] = molecular target: human AXL expressed on the cell surface of tumor cell lines (human) (UniProt P30530); assay: cell-based or functional assay
Sequence of human AXL expressed on the cell surface of tumor cell lines (human) (P30530 26-894): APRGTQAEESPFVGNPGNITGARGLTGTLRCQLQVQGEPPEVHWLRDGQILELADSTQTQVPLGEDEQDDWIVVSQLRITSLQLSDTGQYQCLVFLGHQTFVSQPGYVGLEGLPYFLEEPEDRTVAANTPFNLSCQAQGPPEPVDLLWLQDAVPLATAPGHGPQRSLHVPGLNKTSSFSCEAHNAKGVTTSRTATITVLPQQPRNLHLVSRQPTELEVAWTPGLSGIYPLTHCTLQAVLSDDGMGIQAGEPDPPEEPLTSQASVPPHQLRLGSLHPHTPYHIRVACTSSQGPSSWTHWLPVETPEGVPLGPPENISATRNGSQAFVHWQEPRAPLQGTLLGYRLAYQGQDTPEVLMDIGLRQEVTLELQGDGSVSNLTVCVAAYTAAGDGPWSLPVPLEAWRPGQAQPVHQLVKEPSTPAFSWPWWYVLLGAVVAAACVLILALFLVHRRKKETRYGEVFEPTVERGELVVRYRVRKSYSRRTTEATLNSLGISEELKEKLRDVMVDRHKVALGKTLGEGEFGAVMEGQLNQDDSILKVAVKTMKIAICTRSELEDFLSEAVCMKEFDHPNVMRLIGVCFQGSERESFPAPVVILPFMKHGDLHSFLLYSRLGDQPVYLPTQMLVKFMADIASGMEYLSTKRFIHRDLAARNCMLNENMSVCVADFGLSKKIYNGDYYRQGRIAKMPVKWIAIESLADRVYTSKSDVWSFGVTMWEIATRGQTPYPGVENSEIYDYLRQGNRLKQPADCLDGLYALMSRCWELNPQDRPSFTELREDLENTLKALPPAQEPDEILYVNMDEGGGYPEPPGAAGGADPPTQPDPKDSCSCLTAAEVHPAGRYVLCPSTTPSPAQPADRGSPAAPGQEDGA

[2] = molecular target: huAXL-ECD displayed on yeast (human) (UniProt P30530); assay: yeast surface display ELISA, non-denatured yeast, goat anti-human F(ab')2-HRP
Sequence of huAXL-ECD displayed on yeast (human) (P30530 26-449, form in doubt): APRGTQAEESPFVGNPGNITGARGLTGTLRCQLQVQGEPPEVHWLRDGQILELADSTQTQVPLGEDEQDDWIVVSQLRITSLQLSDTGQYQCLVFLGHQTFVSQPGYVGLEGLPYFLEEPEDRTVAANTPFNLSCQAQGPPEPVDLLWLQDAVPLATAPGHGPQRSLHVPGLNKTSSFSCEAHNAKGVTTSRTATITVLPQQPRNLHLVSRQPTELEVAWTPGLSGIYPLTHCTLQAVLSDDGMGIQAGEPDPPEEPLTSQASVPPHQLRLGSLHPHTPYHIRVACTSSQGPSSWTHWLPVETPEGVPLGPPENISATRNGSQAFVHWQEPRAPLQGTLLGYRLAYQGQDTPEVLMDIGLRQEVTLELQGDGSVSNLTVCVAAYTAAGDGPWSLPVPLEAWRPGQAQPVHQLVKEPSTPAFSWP

Binder	IC50 of growth inhibition (CellTiterGlo, 5 days) of NCI-H292 cells, -Gas6 [1]	IC50 of growth inhibition of NCI-H292 cells, +Gas6 (2 µg/mL) [1]	yeast ELISA signal normalized to myc expression level [2]
B1	6.66 nM	3.78 nM	–
B2	–	–	1.39
B3	0.887 nM	–	–
B4	–	–	1.03
B5	–	–	0.882
B6	2.71 nM	–	–
B7	–	–	0.659
B8	0.034 nM	0.24 nM	–
